Laboratory results as given in patent US9713649 (CLEVELAND CLINIC FOUNDATION, dated 2017).
Primed or numbered codes have the meaning given here. Where no end group is shown, it is not given here. [ ]: non-standard residue; d: D form. The star is where a group is joined. MCC = 4-(N-maleimidomethyl)cyclohexane-1-carbonyl, from SMCC, O=C1C=CC(=O)N1C[C@H]1CC[C@H](C(=O)*)CC1; NOTA(2S-Bn(4-NHCS)) = O=C(O)CN1CCN(CC(=O)O)C[C@H](Cc2ccc(NC(=S)*)cc2)N(CC(=O)O)CC1; Amc = N-aminomethyl cyclohexanoic acid; ZJ = urea ligand Cys-C(O)-Glu; Ahx = NCCCCCC(=O)O; E′E = Glu-urea-Glu

B1: E′EAmc-Ahx-dEdEdEYK(Bn-NOTA)-NH2 (Compound 4) (peptide)
peptide: {E′E-Amc}-[Ahx][dE][dE][dE]YK(NOTA(2S-Bn(4-NHCS)))-NH2
notes: Tested unlabelled; also called E′EAmc-Ahx-dGlu-dGlu-dGlu-Tyr-Lys(Bn-NOTA)-NH2
B2: ZJ-MCC-Ahx-YYYG (Compound 2) (peptide)
peptide: {ZJ-MCC}-[Ahx]YYYG
notes: Synthetic urea-ligand peptide conjugate, unlabelled
B3: E′E-Ahx-EEEYK(Bn-NOTA)-NH2 (Compound 5) (peptide)
peptide: {E′E}-[Ahx]EEEYK(NOTA(2S-Bn(4-NHCS)))-NH2
notes: Tested unlabelled; also called E′E-Ahx-Glu-Glu-Glu-Tyr-Lys(Bn-NOTA)-NH2

These binders were tested against T1, Prostate specific membrane antigen (PSMA) (UniProt Q04609 1-750, limits assumed) (assay: competitive binding on LNCaP or PC3-PIP cells; displacement of 12 nM N-[N-[(S)-1,3-dicarboxypropyl]carbamoyl]-S-[3H]-methyl-L-cysteine, scintillation counting).
T1 construct: whole, on cells
T1 sequence (Q04609 whole entry): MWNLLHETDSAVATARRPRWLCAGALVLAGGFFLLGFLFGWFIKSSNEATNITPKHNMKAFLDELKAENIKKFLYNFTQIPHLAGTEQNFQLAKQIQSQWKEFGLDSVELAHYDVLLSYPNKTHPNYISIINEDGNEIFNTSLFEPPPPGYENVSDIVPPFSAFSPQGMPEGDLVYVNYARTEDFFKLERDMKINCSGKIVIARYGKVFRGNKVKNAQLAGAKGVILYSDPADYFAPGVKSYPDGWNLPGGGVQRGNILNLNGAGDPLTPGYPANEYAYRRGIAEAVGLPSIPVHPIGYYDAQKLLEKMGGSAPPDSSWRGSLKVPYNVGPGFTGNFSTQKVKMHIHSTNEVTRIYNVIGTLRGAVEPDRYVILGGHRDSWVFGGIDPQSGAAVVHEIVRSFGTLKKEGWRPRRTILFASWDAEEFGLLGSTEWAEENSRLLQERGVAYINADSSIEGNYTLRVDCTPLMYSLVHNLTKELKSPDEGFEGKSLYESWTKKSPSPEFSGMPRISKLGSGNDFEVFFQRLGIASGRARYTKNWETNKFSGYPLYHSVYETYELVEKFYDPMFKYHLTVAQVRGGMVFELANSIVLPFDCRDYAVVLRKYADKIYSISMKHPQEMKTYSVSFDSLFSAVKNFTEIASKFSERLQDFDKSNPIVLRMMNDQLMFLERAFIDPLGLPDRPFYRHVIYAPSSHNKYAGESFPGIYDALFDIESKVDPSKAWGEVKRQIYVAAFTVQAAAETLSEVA
Method: Briefly, LNCaP or PC3-PIP cells (5×10^5) were incubated with different concentrations of ligands in the presence of 12 nM N—[N—[(S)-1,3-dicarboxypropyl]carbamoyl]-S-[^3H]-methyl-L-cysteine in a total volume of 300 µL for 1 hour at 37° C. The mixture was centrifuged at 3,000 g for 5 min at 4° C., then washed three times with 500 µL of cold PBS. Finally, 4 mL of EcoLume™ cocktail (MP Biomedicals) was added, and radioactivity was counted by scintillation counter. The concentration required to inhibit 50% of binding was determined (IC$50$) by GraphPad Prism 3.0.
Binding affinities of new compounds to PSMA.
Work on B1 yielded an IC50 of 4.6 nM. B2 was tested, and the IC50 was 2.5 nM. B3 showed an IC50 of 4.3 nM. In the case of {E′E-Amc}-[Ahx][dE][dE][dE]GYGGGC-NH2 [E′EAmc-Ahx-dEdEdEGYGGGC-NH2 (Compound 3)], the IC50 is reported as 7 nM.
